Data from doi:10.1101/2023.09.01.555870 (bioRxiv, 2023).

Molecular target: the molecule itself
Assay: NMR solution structure

B1: carboxy-terminal domain (CTD) fragment of λ Ea22 (102-182) (domain or fragment, bacteriophage λ)
chain: SNEVREDGNQFLVVRHPGKTPVIKHCTGDLEEFLRQLIEQDPLVTIDIITHRYYGVGGQWVQDAGEYLHMMSDAGIRIKGEIETAV
B1: binds.
